Experimental data from the DeepSol protein solubility set.

Test: soluble on expression in E. coli; label from the status in PepcDB or PDB records

Sequence	soluble on expression in E. coli
MMKQIPYGLTDFARIQKDNYYYVDKTMFIERIEMQPAYLFLIRPRRFGKSLTLAMLEAYYDVVYANDFDELFGHLYIGQHPTPKHNCYLIMRFNFSEVSSNVNEVERSFKLHCCSKLRDFVFKYEDLLGKEIWDVLDEEIQQDPGAFLSAINSYASRKGNLPIYLLIDEYDNFTNTILSTYGTEYYQKATHGEGFVRGFFNVIKAATTGTGSALQRMFITGVSPVTMDDVTSGFNIGTNITTDPWFNDLVGFSEAELREMLTYYKEQGVLMQTVDETIVMMKPNYDNYCFSRSRLADCMFNSDMVLYFMKSFVLHGEKPDEIVDPNIRTDFNKLAYLIRLDHGLGENFSVIKEIAEQGEITTDIATHFSALEMTDVRNFKSLLFYFGLLSIKGVDMVGRPILHVPNLVVREQLFSFLIQGYIKHDIFKIDMNRMTMLFENMAFRGDWKPLFNFIAEAIREQSRIREYIEGEAHIKGFLLAYLGMYRYYQLYPEYELNKGFADFLFKPSPSVPVMPPLTYLLEVKYAKAGASEKEIRALADGAREQLLRYSQDELVTEARAKGGLKLITIVWCSWELVLLEEVL	not soluble
GSHMASEKVAVETSVYLSELEWKSASTGYGEIQKDASCDGNTITLKGENGEKVSYDKGIGTHAHSEIVYSLEGLDYYDYFETFVGVDQEMAGTVASISFEVYLDNEKVFDSGLMTGDTTQKHVKVPIAGKNTLKLVVKDGGDSIGSDHGSFGDAKLT	soluble
MKGLRLPESMREELAKPHGKLYRGKGEKLLLEVEEISEAKPFCTVGDLVTASAIKVGLTPDLAVADGKTLREENVEFEQEAFDEVIETTNPPAHISCELISALLKALKLCEDGKKVLVFVDGEEDLAVVPLVKLLPLGALILYGQPGEGVVALKVDEEKKVLILNLLNKMEIIGECDELKYLLGGD	not soluble
MGSDKIHHHHHHMENVSSVTSDGSVADVHAERWQELLARLDADAPDIAEGTAAKLLATIPGYELVDAGPIRESSIRNTALIIRVINAGTEPKAEDLPEALRLADERIAQNVPLGSVLHGFRMSLGEILEHLVQLGPEYNIDPGRMLRWSTLMWAVNDAFSTRATRVYRDHEVATAIADSVRRSEWIGKAVSEGSELSELLWGAAMYDVPADTPLRALAATSPDHAKAETQIQKWTQRAGVRVLASVQPSVIVGIVIGEPKRNVDGPGFAVGLGRAEVLSKLADSYKDASLVLKAADNLKLNEVQRAQDLSWKLAIHASPRVTEILAQKYVKPLRESGEFAHEIVESLRAYVDNQMNIPAAARSIPVHVNTLRYRLRRFEELTGCYLEDTSTVIEVSWVLEVFGREL	not soluble
MAHHHHHHMSDNFFIPTFEHIYEQSIPPPLIKHSRKCKNYNKKRKNIIKYTSQDICVEQRNYDKENKEHKYVCINFHTFNKKCYHKNIRLLDHTHLDFTLGESLMYLLNAIIEVISKLKEGKEYKWNIKGKLINSKKENNIQIVYIENAFLSFKSIVLHAPLLKIKSIDI	not soluble
MGSDKIHHHHHHMAAVDLEKLRASGAGKAIGVLTSGGDAQGMNAAVRAVTRMGIYVGAKVFLIYEGYEGLVEGGENIKQANWLSVSNIIQLGGTIIGSARCKAFTTREGRRAAAYNLVQHGITNLCVIGGDGSLTGANIFRSEWGSLLEELVAEGKISETTARTYSHLNIAGLVGSIDNDFCGTDMTIGTDSALHRIMEVIDAITTTAQSHQRTFVLEVMGRHCGYLALVSALASGADWLFIPEAPPEDGWENFMCERLGETRSRGSRLNIIIIAEGAIDRNGKPISSSYVKDLVVQRLGFDTRVTVLGHVQRGGTPSAFDRILSSKMGMEAVMALLEATPDTPACVVTLSGNQSVRLPLMECVQMTKEVQKAMDDKRFDEATQLRGGSFENNWNIYKLLAHQKPPKEKSNFSLAILNVGAPAAGMNAAVRSAVRTGISHGHTVYVVHDGFEGLAKGQVQEVGWHDVAGWLGRGGSMLGTKRTLPKGQLESIVENIRIYGIHALLVVGGFEAYEGVLQLVEARGRYEELCIVMCVIPATISNNVPGTDFSLGSDTAVNAAMESCDRIKQSASGTKRRVFIVETMGGYCGYLATVTGIAVGADAAYVFEDPFNIHDLKVNVEHMTEKMKTDIQRGLVLRNEKCHDYYTTEFLYNLYSSEGKGVFDCRTNVLGHLQQGGAPTPFDRNYGTKLGVKAMLWLSEKLREVYRKGRVFANAPDSACVIGLKKKAVAFSPVTELKKDTDFEHRMPREQWWLSLRLMLKMLAQYRISMAAYVSGELEHVTRRTLSMDKGF	not soluble
NLHGMEQIEFQVSAHRDLPLRPLNKVASGGELSRISLAIQVITSKAGTVPTLIFDEVDTGIGGRIAAIVGKLLQQLGKTRQVMSITHLPQVAARGDHHWRVSKTSETED	not soluble
MMLAMIKDPFARLGLDREVLTVSQLNGRARVLLEDVFSSIWVEGEISNLSRPASGHVYFTLKDSGAQVRCALFRQSAARVRQALKDGLQVKVRGKVSLFEGRGDYQLILDTVEPAGDGALRLAFDALKAKLSDEGLFSADRKVALPLHPQRIGIISSPTGAVIRDIISVFRRRAPRVELTLIPTAVQGREAINQIVRALKLADARGFDALILARGGGSLEDLWCFNEEAVARAIDACVTPIVSAVGHETDVSISDFVADVRAPTPSAAAELLAPDSSDLHRRVDNLHRRLVSRMQDRLMRERLRLEGISRRLRHPGERLRQQSQRLDDLDMRLRRAFEQSMHKKQVRLAHMESRLTAQHPGRTLAFLRQRLDALAERLPRAIREQIKVRKLQLQSQMQTLNVVSPLATLGRGYSILLDERGHAIRNAAQTQPGQRLTARLGEGELQVRVEDNHLTPVTLSLLD	not soluble
MGSDKIHHHHHHMAKGNKIPLTFHTYQDAATGTEVVRLTPPDVICHRNYFYQKCFFNDGSKLLFGAAFDGPWNYYLLDLKEQNATQLTEGKGDNTFGGFLSPNDDALYYVKNTRNLMRVDLTTLEEKTIYQVPDDWVGYGTWVANSDCTKMVGIEIKKEDWKPLTDWKKFQEFYFTNPCCRLIRVDLVTGEAETILQENQWLGHPIYRPGDDNTVAFCHEGPHDLVDARMWFINEDGTNMRKVKEHAEGESCTHEFWVPDGSAMIYVSYLKDDTNRYIRSIDPVTLEDRQLRVMPPCSHLMSNYDGTLLVGDGSDAPVDVQDDGGYKIENDPFLYVFNLKTGKEHRIAQHNTSWEVLEGDRQVTHPHPSFTPDNKQVLFTSDVDGKPALYLAKVPDSVWN	not soluble
MRYRPVIGLEIHVQLSTKTKAFCSCPADVFELPPNTAICPVCTGQPGALPVPNEEMIRFAVKTALALNCKIHKYSRFDRKNYFYPDLPKGYQISQYFYPIATEGFLEIDGDEGRKKVRIRRLHLEEDAGKLVHEGDSITRASYSLVDMNRCGVPLIEIVTEPDISSPREARVFMEKLRSIVRYLGVSTGDMEKGALRCDANISVVDTETGRQSNRVEVKNMNSFRFVERALEYEFERIVKAMERGEDVERETRGWDMATKITVSMRGKEEESDYRYFPEPDIPPVVLSDEYLEEVKKELPELPDEKAERFMREYGLPEYDAKVLTSSKELAEFFEECVKVVNRPKDLSNWIMTEVLRELNERNIEITESKLTPQHFADLFKLMDEGKISIKIAKEIFPEVFETGKMPSQIVEEKGLTQINDEKLIEELVKKAMEQNPKAVQDYKSGKKKAAGFFVGYVMRETKGKANPELTNRIIQKLLEGE	soluble
MGSSHHHHHHGKTIFVIVPTNEEQVAFLEALAKQDELNFDWQNPPTEPGQPVVILIPSDMVEWFLEMLKAKGIPFTVYVEEGGSENLYFQGGGGGGSRPYGATFIAWGLAFALRAWRCLPRERVHMCRAAHRLADAKMRQRGVGKVLMPYTGASRLMPVASYSRGNRLPSCSSTEATTRCHGFLAIGSRSPTPTHQARVDMGDNDITANSSGKTSGAAAGSAPSSCDLFLSASALESSAQFLALTHVASRQEPSSSITDRNAASVTPSGSRSASGRRAPRRSHEPFTCMSRACALDFTTLSEHGSEVPSVEPASLSAMQPTTSSSSRMHGCTGAAMTTVSLPQTPVVSGAVQSPAWLPAELARTFSDSKTPLSVCSQPSKVGPSYSQMDTLSPPTYEEAVLSSSRSSSSPRIAVLSTTMRSQRLSPAVARDGAP	soluble
GGLTEICRKPVSPGCISSVSDWLISIGLPMYAGTLSTAGFSTLSQVPSLSHTCLQEAGITEERHIRKLLSAARLFKLPPGPEAM	soluble
MASMTGGQQMGRGSSTSLYKKAGLMPSPMEDIEEILITEEQLKAKVKELGEMITRDYEGKDLVLIGVLKGAIMFMSGLSRAIDLPLSIDFLAVSSYGSSTKSSGIVKIIKDHDIDIEGKDVLIVEDIIDSGLTLAYLRETLLGRKPRSLKICTILDKPERREADVKVDYCGFKIPDKFVVGYGLDYAEKYRNLPFIGVLKPELYK	soluble
MGSDKIHHHHHHMAVRQDTIWERFLSPVMRLLIDEEGLRRYADSIDWEKEGDRFRRDDVIIPSYYSSQNFHGITGGYLTYNAAVSYDPITQYVVPPNETIVRQALIDAVKVKPRRILDLGCGTGSTTLMLKRAFPEAEVIGLDLSPYMLVRAEDKARNSGLEIVWRHGNAEKTSFRDATFDLVTASLLFHETPNEVSLAILQESFRLLVTGGQVLILDGNQKTLRQLEWLNDVFEEPYIREYAAGSIEANMGAAGFEAVRSQDVWWINQVTGGVKPIATENVRRYTPTSVDNNDLEGLGSPAFGIIA	not soluble
MAHHHHHHMIYLIDNEDMIYIEFYRKKDCTFVYKFFNDTLPTGSTLSTSDVSAEYANIKYEINNNSCTVYSCDYSCLLKHKDYITIINNVLDKNLSDEILENYKNEKWLMYTKNDEEKLNLVIESNTLLRIKGKLRHEIIFGIPKKKKIQMQDKLMDRKNSYLVIFRFIREDNIKNFVTQKIKNKIPQNERQEKDCVPINVNEYTSEKLEKMYVLDVYNQIALHFGHTRAYEQEENVVGNRKFDSQDIFVPWYFQQQYKTEGYDDDAEGEGEEEPEKENEKEKEESHKFKPVKKGNMFKILKMKFFFFFYLLHNFRNIYIYNL	soluble
MSLKVHHLNESRSQRILWLLEELSLPYEIVQHTRDAKTRLAPPSLTDVHPLGKSPVIQDGALVVIESGAIIDYIIRRHGGGRLAPDAASADYDRYQQWLHYAEGSAMLPLMLNMYVGRLGEAGAPLHPRIQSEIANHLAFVNDSLAGRDYFVGDSLTGADIQMSFVPEVAKAMGKLADYPHMAAWIGRMHARPAWKTALDKGGPYALGAEGHHHHHH	soluble
MGSDKIHHHHHHMFNAQYFRTFITLVETGSFTHTARKLEMTQPGVSQHIRKLERYLDKSLLYRHGRRFTLTETGRRAYDYAVKLFAEHEQFRHSLDNDSPDTGECRVASPSSVGLMFYPFILGYQQMHPGLTVTYDFAFNAEIVDAVLAGRFDVGIVTDVTKHPDLDFEPWHQEPLCLLVPADFTGTTISELMALGFMNYSDGINNASSLLRRNFAGEFRSMSHFPQQGFSNEVSMVLDAVARGLGFTVVPRSVMETSPWQRQVKELPLAESVYETLYVVTKRGVEMPRRYQQLLGEFRLQRRNVLYGYAEAPPLEDEA	not soluble
MEGAVIKVIGLGGAGNNAVNRMIEAGLSGVEFIAANTDAQVLAKSLADHRIQLGEKLTRGLGAGANPEIGEKAALEAEDLIAEALEGADLVFITAGMGGGTGTGSAPVVADIAKRLGALTVAVVTRPFSFEGPKRMRAAEEGIKKLKERVDAMVVVQNDRLLSAVDKKMTLKDAFLIADRVLYHGVKGITDVINLPGLINVDFADVKALLEGAGQVLMGIGAGRGENRVEEAAKSAIHSPLLERSIEGAKRLLLNVVGSEELSLMEAAEVVERIREATGHEDVDILYGVTYDERAQDELRVILIAAGFAESTVVPRPARPVDFPTGHVDLTNYDIPAFIRYGDGDYPPRRGN	soluble
MQADFNRPVLAVDTGTSYLSLALRADGETCLFHQEVGSRQSALILPEIRTLFHDAGITAADLGAIVYAKGPGAFTGLRIGIGVAQGLATPFDTPLIGVPSLDAAASLPPPQSCILAAADARMGEVFYAWFDTLNRRRLSDYQVGRAADIRLPEGCAFSDGIGNAFALENRPPFSGKPDMPTAADFLNLAAEGGFPAVAAAHAELLYVRNKIALTAKEQAERRARLLEHHHHHH	not soluble
